Square brackets hold non-standard residues; d marks the D form. Peptide text beside a SMILES is read from it. * marks the point of attachment. Ala(1H-tetrazol-5-yl) = N[C@@H](Cc1nnn[nH]1)C(=O)O; Nle = CCCC[C@H](N)C(=O)O; Ms = CS(=O)(=O)*
T1: PAC1 receptor (UniProt P41586 21-468, limits assumed)
T1 sequence (looked up): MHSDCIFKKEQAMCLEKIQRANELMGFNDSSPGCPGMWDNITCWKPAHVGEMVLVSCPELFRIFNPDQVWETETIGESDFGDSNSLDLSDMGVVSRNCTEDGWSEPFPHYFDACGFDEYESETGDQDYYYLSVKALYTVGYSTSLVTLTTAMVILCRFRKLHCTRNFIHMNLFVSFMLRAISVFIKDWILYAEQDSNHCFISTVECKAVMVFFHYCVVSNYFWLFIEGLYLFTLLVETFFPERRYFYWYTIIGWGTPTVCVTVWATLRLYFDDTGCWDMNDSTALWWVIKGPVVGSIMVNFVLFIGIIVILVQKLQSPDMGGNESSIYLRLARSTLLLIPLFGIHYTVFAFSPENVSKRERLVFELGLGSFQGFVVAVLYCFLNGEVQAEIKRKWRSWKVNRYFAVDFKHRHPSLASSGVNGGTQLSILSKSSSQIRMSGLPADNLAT

T2: VPAC1 receptor (UniProt P32241 31-457, limits assumed)
T2 sequence (looked up): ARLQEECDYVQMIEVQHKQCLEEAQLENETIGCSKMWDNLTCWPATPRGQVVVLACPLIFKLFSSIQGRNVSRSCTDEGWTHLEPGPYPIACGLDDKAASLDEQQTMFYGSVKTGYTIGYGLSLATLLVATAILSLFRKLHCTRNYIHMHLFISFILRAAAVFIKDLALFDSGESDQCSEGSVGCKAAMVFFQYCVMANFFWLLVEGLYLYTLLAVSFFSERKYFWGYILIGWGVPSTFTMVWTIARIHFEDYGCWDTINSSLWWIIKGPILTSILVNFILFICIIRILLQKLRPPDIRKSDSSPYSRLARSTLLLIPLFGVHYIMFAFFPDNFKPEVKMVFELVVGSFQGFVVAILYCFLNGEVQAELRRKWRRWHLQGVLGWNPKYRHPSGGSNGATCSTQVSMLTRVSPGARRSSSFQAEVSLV


Legend:
[1] = Peptide stability test, phosphate buffer (pH 7.0), 40° C. storage, HPLC remaining rate; assay type: physicochemical; conditions: for remaining rate after correction for water, 40° C., 1 month preservation / remaining rate after correction for water, 40° C., 2 months preservation: 100 μM in phosphate buffer pH 7.0; for stability in aqueous solution (in words), 40° C. storage: phosphate buffer pH 7.0, 1 or 2 months
Method: Peptides 1 and 3 to 5 synthesized in Example 2 were weighed and dissolved in phosphate buffer (pH 7.0) to prepare 1.0 mM peptide solutions. The 1.0 mM peptide solutions were then diluted with phosphate buffer to 100 μM. After filtering with Chromatdisk (product of Merck Millipore, Millex-GV, 0.22 μm), each filtrate was dispensed into an LC vial (Waters Deactivated […] prepared peptide solutions were incubated for one month or 2 months in a 40° C. thermostatic bath to obtain stored samples. A simultaneously prepared sample among the peptide solutions that was not stored was used as a standard sample (initial sample). The standard sample and the stored samples were stored at -30° C. until sample analysis. Using the total weight of the aqueous peptide solution and storage vessel as the specimen weight, measurements were recorded as the specimen weights before storage and the specimen weights after storage under different storage conditions. The empty weight of the storage vessel was also measured, and the moisture permeability was determined by the following formula. After stirring the standard sample and the stored samples with a vortex mixer, each peptide solution was transferred to an HPLC vial (Deactivated Qsert vial by Waters Co.). Reverse-phase HPLC (HPLC system: Prominence by Shimadzu Corp.) was conducted under the conditions shown in Table 3 below for analysis of the peptide solutions, and chromatograms were obtained. Guard column: XSelect CSH C18 by Waters Co., 5 μm, 4.6×20 mm Guard Cartridge Detection wavelength: 220 nm Mobile phase A: 0.1% formic acid aqueous solution Mobile phase B: 0.1% acetonitrile formate solution Measuring time: 30 minutes Measuring sample injection rate: 50 μL Flow rate: 1.0 mL/min Sample cooler: 4° C. Column temperature: 40° C. Mobile phase delivery: The mixing ratio of mobile phase A and mobile phase B was varied as shown in Table 3 for linear concentration gradient control. The peak area value for the peptide in the chromatogram was calculated, and the remaining rate (remaining rate before correction for water) was calculated using formula (2). The remaining rate after correction for water was also calculated from the remaining rate before correction for water using formula (3), taking into account the moisture permeability of the vessel. Peptides 10 and 11 synthesized in Example 2 were weighed and dissolved in phosphate buffer (pH 7.0) to prepare 1.0 mM peptide solutions. Each solution was filtered with a Chromatdisk (product of Merck Millipore. Millex-GV, 0.22 μm). Each filtrate was diluted to 100 μM with phosphate buffer (pH 7.0) and dispensed into a tube (Protein LoBind Tube by Eppendorf Co.). The prepared peptide solutions were incubated for one month or 2 months in a 40° C. thermostatic bath to obtain stored samples. A simultaneously prepared sample among the peptide solutions that was not stored was used as a standard sample (initial sample). The standard sample and the stored samples were stored at -30° C. until sample analysis. The remaining rate after correction for water for each peptide among the stored samples was measured in the same manner as Example 4, and the results are shown in Table 8.

PAC1 receptor = target: T1, PAC1 receptor; experiment: cell-based or functional assay
VPAC1 receptor = target: T2, VPAC1 receptor; experiment: cell-based or functional assay
[2] = Table 8, measured as in Example 4

| EC50 (PAC1R), cAMP inducing effect (PAC1 receptor) | EC50 (VPAC1R), cAMP inducing effect (VPAC1 receptor) | Molecule | also measured |
| --- | --- | --- | --- |
| – | – | CC[C@H](C)[C@H](NC(=O)CNC(=O)[C@H](Cc1nnn[nH]1)NC(=O)[C@H](CO)NC(=O)[C@@H](N)Cc1c[nH]cn1)C(=O)N[C@@H](Cc1ccccc1)C(=O)N[C@H](C(=O)N[C@@H](Cc1nnn[nH]1)C(=O)N[C@@H](CO)C(=O)N[C@@H](Cc1ccc(O)cc1)C(=O)N[C@@H](CO)C(=O)N[C@@H](CCCNC(=N)N)C(=O)N[C@@H](Cc1ccc(O)cc1)C(=O)N[C@@H](CCCNC(=N)N)C(=O)N[C@@H](CCCCN)C(=O)N[C@@H](CCC(N)=O)C(=O)N[C@@H](CCSC)C(=O)N[C@@H](C)C(=O)N[C@H](C(=O)N[C@@H](CCCCN)C(=O)N[C@@H](CCCCN)C(=O)N[C@@H](Cc1ccc(O)cc1)C(=O)N[C@@H](CC(C)C)C(=O)N[C@@H](C)C(=O)N[C@@H](C)C(=O)N[C@H](C(=O)N[C@@H](CC(C)C)C(N)=O)C(C)C)C(C)C)[C@@H](C)O [Peptide 5] (H-HS[Ala(1H-tetrazol-5-yl)]GIFT[Ala(1H-tetrazol-5-yl)]SYSRYRKQMAVKKYLAAVL-NH2) | remaining rate after correction for water, 40° C., 1 month preservation ([1]; Table 4, HPLC conditions 1): 94.7%; remaining rate after correction for water, 40° C., 2 months preservation ([1]; Table 4, HPLC conditions 1): 85.6%; stability in aqueous solution (in words), 40° C. storage [1]: further increased stability over peptide 3 and peptide 4 |
| – | – | CCCC[C@H](NC(=O)[C@H](CCC(N)=O)NC(=O)[C@H](CCCCN)NC(=O)[C@H](CCCNC(=N)N)NC(=O)[C@H](Cc1ccc(O)cc1)NC(=O)[C@H](CCCNC(=N)N)NC(=O)[C@H](CO)NC(=O)[C@H](Cc1ccc(O)cc1)NC(=O)[C@H](CO)NC(=O)[C@H](Cc1nnn[nH]1)NC(=O)[C@@H](NC(=O)[C@H](Cc1ccccc1)NC(=O)[C@@H](NC(=O)CNC(=O)[C@H](Cc1nnn[nH]1)NC(=O)[C@H](CO)NC(=O)[C@H](Cc1c[nH]cn1)NS(C)(=O)=O)[C@@H](C)CC)[C@@H](C)O)C(=O)N[C@@H](C)C(=O)N[C@H](C(=O)N[C@@H](CCCCN)C(=O)N[C@@H](CCCCN)C(=O)N[C@@H](Cc1ccc(O)cc1)C(=O)N[C@@H](CC(C)C)C(=O)N[C@@H](C)C(=O)N[C@@H](C)C(=O)N[C@H](C(=O)N[C@@H](CC(C)C)C(N)=O)C(C)C)C(C)C [Peptide 11] (Ms-HS[Ala(1H-tetrazol-5-yl)]GIFT[Ala(1H-tetrazol-5-yl)]SYSRYRKQ[Nle]AVKKYLAAVL-NH2) | remaining rate after correction for water, 40° C., 1 month preservation [1, 2]: 94.2%; remaining rate after correction for water, 40° C., 2 months preservation [1, 2]: 88.8%; stability in aqueous solution (in words), 40° C. storage [1]: stabilized to the same degree |
| 0.034 nM | 0.035 nM | Ms-HS[Ala(1H-tetrazol-5-yl)]AIFT[Ala(1H-tetrazol-5-yl)]SYSRYRKQAAVKKYLAAVL-NH2 (SMILES CC[C@H](C)[C@H](NC(=O)[C@H](C)NC(=O)[C@H](Cc1nnn[nH]1)NC(=O)[C@H](CO)NC(=O)[C@H](Cc1c[nH]cn1)NS(C)(=O)=O)C(=O)N[C@@H](Cc1ccccc1)C(=O)N[C@H](C(=O)N[C@@H](Cc1nnn[nH]1)C(=O)N[C@@H](CO)C(=O)N[C@@H](Cc1ccc(O)cc1)C(=O)N[C@@H](CO)C(=O)N[C@@H](CCCNC(=N)N)C(=O)N[C@@H](Cc1ccc(O)cc1)C(=O)N[C@@H](CCCNC(=N)N)C(=O)N[C@@H](CCCCN)C(=O)N[C@@H](CCC(N)=O)C(=O)N[C@@H](C)C(=O)N[C@@H](C)C(=O)N[C@H](C(=O)N[C@@H](CCCCN)C(=O)N[C@@H](CCCCN)C(=O)N[C@@H](Cc1ccc(O)cc1)C(=O)N[C@@H](CC(C)C)C(=O)N[C@@H](C)C(=O)N[C@@H](C)C(=O)N[C@H](C(=O)N[C@@H](CC(C)C)C(N)=O)C(C)C)C(C)C)[C@@H](C)O) [Peptide 31] | – |
| 0.148 nM | 0.076 nM | Ac-HS[Ala(1H-tetrazol-5-yl)]AIFT[Ala(1H-tetrazol-5-yl)]SYSRYRKQAAVKKYLAAVL-NH2 (SMILES CC[C@H](C)[C@H](NC(=O)[C@H](C)NC(=O)[C@H](Cc1nnn[nH]1)NC(=O)[C@H](CO)NC(=O)[C@H](Cc1c[nH]cn1)NC(C)=O)C(=O)N[C@@H](Cc1ccccc1)C(=O)N[C@H](C(=O)N[C@@H](Cc1nnn[nH]1)C(=O)N[C@@H](CO)C(=O)N[C@@H](Cc1ccc(O)cc1)C(=O)N[C@@H](CO)C(=O)N[C@@H](CCCNC(=N)N)C(=O)N[C@@H](Cc1ccc(O)cc1)C(=O)N[C@@H](CCCNC(=N)N)C(=O)N[C@@H](CCCCN)C(=O)N[C@@H](CCC(N)=O)C(=O)N[C@@H](C)C(=O)N[C@@H](C)C(=O)N[C@H](C(=O)N[C@@H](CCCCN)C(=O)N[C@@H](CCCCN)C(=O)N[C@@H](Cc1ccc(O)cc1)C(=O)N[C@@H](CC(C)C)C(=O)N[C@@H](C)C(=O)N[C@@H](C)C(=O)N[C@H](C(=O)N[C@@H](CC(C)C)C(N)=O)C(C)C)C(C)C)[C@@H](C)O) [Peptide 32] | – |
| 0.025 nM | 0.09 nM | HSXGIFTXAYSRYRKQLAVKKYLAAVL (N-terminal mesyl (Ms-); Tz (aspartic acid with carboxyl group replaced by tetrazole) at positions 3 and 8; C-terminal amide (NH2)) [Peptide 29] | – |
| 0.032 nM | 0.057 nM | HSXAIFTXSYSRYRKQLAVKKYLAAVL (N-terminal mesyl (Ms-); Tz (aspartic acid with carboxyl group replaced by tetrazole) at positions 3 and 8; C-terminal amide (NH2)) [Peptide 30] | – |
| 0.089 nM | 0.143 nM | Ac-HA[Ala(1H-tetrazol-5-yl)]AIFT[Ala(1H-tetrazol-5-yl)]SYSRYRKQAAVKKYLAAVL-NH2 (SMILES CC[C@H](C)[C@H](NC(=O)[C@H](C)NC(=O)[C@H](Cc1nnn[nH]1)NC(=O)[C@H](C)NC(=O)[C@H](Cc1c[nH]cn1)NC(C)=O)C(=O)N[C@@H](Cc1ccccc1)C(=O)N[C@H](C(=O)N[C@@H](Cc1nnn[nH]1)C(=O)N[C@@H](CO)C(=O)N[C@@H](Cc1ccc(O)cc1)C(=O)N[C@@H](CO)C(=O)N[C@@H](CCCNC(=N)N)C(=O)N[C@@H](Cc1ccc(O)cc1)C(=O)N[C@@H](CCCNC(=N)N)C(=O)N[C@@H](CCCCN)C(=O)N[C@@H](CCC(N)=O)C(=O)N[C@@H](C)C(=O)N[C@@H](C)C(=O)N[C@H](C(=O)N[C@@H](CCCCN)C(=O)N[C@@H](CCCCN)C(=O)N[C@@H](Cc1ccc(O)cc1)C(=O)N[C@@H](CC(C)C)C(=O)N[C@@H](C)C(=O)N[C@@H](C)C(=O)N[C@H](C(=O)N[C@@H](CC(C)C)C(N)=O)C(C)C)C(C)C)[C@@H](C)O) [Peptide 33] | – |

Reference: patent US20220202905A1, “COMPOSITION FOR PREVENTING OR TREATING NEUROTROPHIC KERATITIS WHICH CONTAINS PACAP PEPTIDE OR STABILIZED PACAP PEPTIDE” (SENJU PHARMACEUTICAL CO., LTD., priority 2019, published 2022)
